Results reported in patent US20200165324A1.

Legend:
BG505 N332T [1] = assay: ELISA, gp120 captured from lysed virions
JR-CSF N276A [2] = assay: ELISA, gp120 captured from lysed virions
JR-CSF V371A = assay: ELISA, gp120 captured from lysed virions
BG505 G471A [3] = assay: ELISA, gp120 captured from lysed virions
JR-CSF N262A = assay: ELISA, gp120 captured from lysed virions
JR-CSF T198A [4] = assay: ELISA, gp120 captured from lysed virions
BG505 G367A = assay: ELISA, gp120 captured from lysed virions
[5] = biological target: BG505 gp120 captured from lysed virions (HIV isolate BG505); assay: ELISA, gp120 captured from lysed virions
BG505 M475A = assay: ELISA, gp120 captured from lysed virions
JR-CSF N362A [6] = assay: ELISA, gp120 captured from lysed virions
BG505 S365A [7] = assay: ELISA, gp120 captured from lysed virions
BG505 L369A [8] = assay: ELISA, gp120 captured from lysed virions
JR-CSF G472A = assay: ELISA, gp120 captured from lysed virions
JR-CSF T373A = assay: ELISA, gp120 captured from lysed virions
JR-CSF G471A [9] = assay: ELISA, gp120 captured from lysed virions
BG505 E370A = assay: ELISA, gp120 captured from lysed virions
BG505 R476A [10] = assay: ELISA, gp120 captured from lysed virions
BG505 L179A [11] = assay: ELISA, gp120 captured from lysed virions
JR-CSF K207A [12] = assay: ELISA, gp120 captured from lysed virions
JR-CSF N283A [13] = assay: ELISA, gp120 captured from lysed virions
BG505 T373A [14] = assay: ELISA, gp120 captured from lysed virions
BG505 S364A [15] = assay: ELISA, gp120 captured from lysed virions
BG505 N363A [16] = assay: ELISA, gp120 captured from lysed virions
BG505 K121A [17] = assay: ELISA, gp120 captured from lysed virions
BG505 N197A = assay: ELISA, gp120 captured from lysed virions
BG505 T372A [18] = assay: ELISA, gp120 captured from lysed virions
JR-CSF S365A [19] = assay: ELISA, gp120 captured from lysed virions
JR-CSF R476A [20] = assay: ELISA, gp120 captured from lysed virions
BG505 G366A = assay: ELISA, gp120 captured from lysed virions
JR-CSF N279A = assay: ELISA, gp120 captured from lysed virions
JR-CSF E370A = assay: ELISA, gp120 captured from lysed virions
BG505 V371A = assay: ELISA, gp120 captured from lysed virions
JR-CSF G473A = assay: ELISA, gp120 captured from lysed virions
BG505 N283A = assay: ELISA, gp120 captured from lysed virions
JR-CSF S199A [21] = assay: ELISA, gp120 captured from lysed virions
JR-CSF G366A = assay: ELISA, gp120 captured from lysed virions
BG505 N332T [22] = biological target: BG505 N332T
JR-CSF N276A [23] = biological target: JR-CSF N276A
BG505 G471A [24] = biological target: BG505 G471A
JR-CSF T198A [25] = biological target: JR-CSF T198A
JR-CSF N362A [26] = biological target: JR-CSF N362A
BG505 S365A [27] = biological target: BG505 S365A
BG505 L369A [28] = biological target: BG505 L369A
JR-CSF G471A [29] = biological target: JR-CSF G471A
BG505 R476A [30] = biological target: BG505 R476A
BG505 L179A [31] = biological target: BG505 L179A
JR-CSF K207A [32] = biological target: JR-CSF K207A
JR-CSF N283A [33] = biological target: JR-CSF N283A
BG505 T373A [34] = biological target: BG505 T373A
BG505 S364A [35] = biological target: BG505 S364A
BG505 N363A [36] = biological target: BG505 N363A
BG505 K121A [37] = biological target: BG505 K121A
BG505 T372A [38] = biological target: BG505 T372A
JR-CSF S365A [39] = biological target: JR-CSF S365A
JR-CSF R476A [40] = biological target: JR-CSF R476A
JR-CSF S199A [41] = biological target: JR-CSF S199A
[42] = biological target: BG505 gp120 captured from lysed virions (HIV isolate BG505); assay: ELISA on BG505 gp120 in PBS pH 7.4

In the case of NC-Cow1 (antibody), the EC50 (BG505 N332T [1]) is reported as 0.05 µg/mL, the EC50 (JR-CSF N276A [2]) is reported as 0.029 µg/mL and the EC50 (JR-CSF V371A) is reported as 1.36 µg/mL. For the same substance, the EC50 (BG505 G471A [3]) was 0.05 µg/mL, the EC50 (JR-CSF N262A) was 5.64 µg/mL and the EC50 (JR-CSF T198A [4]) was 0.045 µg/mL. For the same substance, the EC50 (BG505 G367A) was 1.34 µg/mL, the EC50 [5] was 0.04 µg/mL and the EC50 (BG505 M475A) was 0.08 µg/mL. It also gave an EC50 (JR-CSF N362A [6]) of 0.038 µg/mL, an EC50 (BG505 S365A [7]) of 0.07 µg/mL and an EC50 (BG505 L369A [8]) of 0.24 µg/mL. For the same substance, the EC50 (JR-CSF G472A) was 11.2 µg/mL, the EC50 (JR-CSF T373A) was 0.067 µg/mL and the EC50 (JR-CSF G471A [9]) was 0.148 µg/mL. It also gave an EC50 (BG505 E370A) of 0.11 µg/mL, an EC50 (BG505 R476A [10]) of 0.07 µg/mL and an EC50 (BG505 L179A [11]) of 0.05 µg/mL. For the same substance, the EC50 (JR-CSF K207A [12]) was 0.052 µg/mL, the EC50 (JR-CSF N283A [13]) was 0.133 µg/mL and the EC50 (BG505 T373A [14]) was 0.12 µg/mL. For the same substance, the EC50 (BG505 S364A [15]) was 0.14 µg/mL, the EC50 (BG505 N363A [16]) was 0.09 µg/mL and the EC50 (BG505 K121A [17]) was 0.04 µg/mL. For the same substance, the EC50 (BG505 N197A) was 0.04 µg/mL, the EC50 (BG505 T372A [18]) was 0.07 µg/mL and the EC50 (JR-CSF S365A [19]) was 0.028 µg/mL. It also gave an EC50 (JR-CSF R476A [20]) of 0.281 µg/mL, an EC50 (BG505 G366A) of 0.13 µg/mL and an EC50 (JR-CSF N279A) of 0.036 µg/mL. It also gave an EC50 (JR-CSF E370A) of 1.16 µg/mL, an EC50 (BG505 V371A) of 0.24 µg/mL and an EC50 (JR-CSF G473A) of 6.83 µg/mL. The EC50 (BG505 N283A) was 0.1 µg/mL, the EC50 (JR-CSF S199A [21]) was 0.058 µg/mL and the EC50 (JR-CSF G366A) was 0.027 µg/mL. The IC50, pseudovirus neutralization (BG505 N332T [22]) was 0.018 µg/mL, the IC50, pseudovirus neutralization (JR-CSF N276A [23]) was 1.76 µg/mL and the IC50, pseudovirus neutralization (BG505 G471A [24]) was 0.013 µg/mL. The IC50, pseudovirus neutralization (JR-CSF T198A [25]) was 2.98 µg/mL, the IC50, pseudovirus neutralization (JR-CSF N362A [26]) was 0.496 µg/mL and the IC50, pseudovirus neutralization (BG505 S365A [27]) was 0.015 µg/mL. It also gave an IC50, pseudovirus neutralization (BG505 L369A [28]) of 0.015 µg/mL, an IC50, pseudovirus neutralization (JR-CSF G471A [29]) of 50 µg/mL and an IC50, pseudovirus neutralization (BG505 R476A [30]) of 0.012 µg/mL. For the same substance, the IC50, pseudovirus neutralization (BG505 L179A [31]) was 0.018 µg/mL, the IC50, pseudovirus neutralization (JR-CSF K207A [32]) was 1.8 µg/mL and the IC50, pseudovirus neutralization (JR-CSF N283A [33]) was 6.94 µg/mL. The IC50, pseudovirus neutralization (BG505 T373A [34]) was 0.016 µg/mL, the IC50, pseudovirus neutralization (BG505 S364A [35]) was 0.014 µg/mL and the IC50, pseudovirus neutralization (BG505 N363A [36]) was 0.013 µg/mL. The IC50, pseudovirus neutralization (BG505 K121A [37]) was 0.029 µg/mL, the IC50, pseudovirus neutralization (BG505 T372A [38]) was 0.028 µg/mL and the IC50, pseudovirus neutralization (JR-CSF S365A [39]) was 0.129 µg/mL. For the same substance, the IC50, pseudovirus neutralization (JR-CSF R476A [40]) was > 50 µg/mL, the IC50, pseudovirus neutralization (JR-CSF S199A [41]) was 0.404 µg/mL and the EC50 (read off the curve) [42] was 0.1 µg/mL.
